Key:
STAT5A = STAT5A (UniProt P42230); assay: biotin-peptide precipitation from lysate, GFP blot; details: reference: non-phosphorylated Src peptide; sites Y416
STAT5A-eYFP (murine) = STAT5A-eYFP (murine) (UniProt P42230)

binding against the reference (STAT5A) | Substance | subcellular distribution of STAT5A-eYFP in HeLa T-REx FRT cells expressing vSrc^Y416F-dsRed, nucleus/cytoplasm (n/c) ratio (STAT5A-eYFP (murine))
gained | Src-peptide (activation loop of cSrc (vSrc), Yes and Fyn) (from UniProt P00523) pY416 Src peptide | 
 | vSrc^Y416F-dsRed (from UniProt P00524 1-526) (enzyme) | 1

Source: paper PMC4350284
